Laboratory results from PMC6927645, “Self-association of human beta-galactocerebrosidase: Dependence on pH, salt, and surfactant” (PLoS ONE, 2019).

Target: the molecule itself
Assay: AUC; sedimentation velocity dilution series, 40,000 rpm, 20°C, Rayleigh optics; 5 mM sodium phosphate pH 6.0 with 50, 150 or 500 mM NaCl; Wide Distribution Analysis and fits in SedAnal; self-association of monomer to higher oligomers

B1: recombinant human galactocerebrosidase (hGALC) (enzyme, UniProt P54803 43-685, looked up)
chain: YVLDDSDGLGREFDGIGAVSGGGATSRLLVNYPEPYRSQILDYLFKPNFGASLHILKVEIGGDGQTTDGTEPSHMHYALDENYFRGYEWWLMKEAKKRNPNITLIGLPWSFPGWLGKGFDWPYVNLQLTAYYVVTWIVGAKRYHDLDIDYIGIWNERSYNANYIKILRKMLNYQGLQRVKIIASDNLWESISASMLLDAELFKVVDVIGAHYPGTHSAKDAKLTGKKLWSSEDFSTLNSDMGAGCWGRILNQNYINGYMTSTIAWNLVASYYEQLPYGRCGLMTAQEPWSGHYVVESPVWVSAHTTQFTQPGWYYLKTVGHLEKGGSYVALTDGLGNLTIIIETMSHKHSKCIRPFLPYFNVSQQFATFVLKGSFSEIPELQVWYTKLGKTSERFLFKQLDSLWLLDSDGSFTLSLHEDELFTLTTLTTGRKGSYPLPPKSQPFPSTYKDDFNVDYPFFSEAPNFADQTGVFEYFTNIEDPGEHHFTLRQVLNQRPITWAADASNTISIIGDYNWTNLTIKCDVYIETPDTGGVFIAGRVNKGGILIRSARGIFFWIFANGSYRVTGDLAGWIIYALGRVEVTAKKWYTLTLTIKGHFTSGMLNDKSLWTDIPVNFPKNGWAAIGTHSFEFAQFDNFLVEATR
modifications: heavily glycosylated; glycan structures not determined
notes: human galactocerebrosidase (GALC); The protein was recovered from the culture broth, and the computed 73 kDa protein moiety fits the precursor without its signal peptide (surmised); No tag is mentioned; also called human beta-galactocerebrosidase; galactocerebrosidase enzyme; source: virus filtration; ultrafiltration/diafiltration)
- stoichiometry N: ≥ 4
